# Measured values as given in IntAct's records for PubMed 9528767.
# B1: Small nuclear ribonucleoprotein E (Saccharomyces cerevisiae), Q12330 (parent)
# chain: MSNKVKTKAMVPPINCIFNFLQQQTPVTIWLFEQIGIRIKGKIVGFDEFMNVVIDEAVEIPVNSADGKEDVEKGTPLGKILLKGDNITLITSAD
# partner: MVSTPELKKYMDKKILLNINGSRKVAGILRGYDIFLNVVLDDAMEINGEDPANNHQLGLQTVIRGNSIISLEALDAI
# B2: Small nuclear ribonucleoprotein E (Saccharomyces cerevisiae), Q12330 (parent)
# chain: B1 chain
# Variants of: B1
# Settings: with ruxg_yeast SMX2, P40204
row,Variant,effect of a mutation on the interaction
1,L31S,with no effect
2,N51A,with no effect
3,G41D,disrupting interaction strength
4,I29K,disrupting interaction strength
5,M50A,decreasing interaction strength
6,G45V,with no effect
7,M10V,with no effect
8,V27E,disrupting interaction strength
9,K6E,with no effect
10,N3T,with no effect
11,D47H,decreasing interaction strength
12,D47A,decreasing interaction strength

# Further lines, results first:
row,effect of a mutation on the interaction,Variant
1,decreasing interaction strength,N86A
2,with no effect,P76S
3,with no effect,K83V
4,with no effect,I80F
5,with no effect,L81P
6,with no effect,E59A;N63D
7,disrupting interaction strength,I90R
8,disrupting interaction strength,I54N
9,with no effect,G84A

# Variants of: B1
# Settings: with ruxg_yeast SMX2, P40204
# Remark: another data set of the same source
row,effect of a mutation on the interaction,Variant
1,disrupting interaction strength,Q22L

# Variants of: B2
# Settings: with ruxf_yeast SMX3, P54999
# Chain of ruxf_yeast SMX3, P54999 (P54999 whole entry): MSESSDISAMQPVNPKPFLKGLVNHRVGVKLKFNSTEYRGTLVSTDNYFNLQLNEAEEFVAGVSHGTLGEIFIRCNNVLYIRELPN
row,Variant,effect of a mutation on the interaction
1,Q22L,disrupting interaction strength
2,I29K,disrupting interaction strength
3,L31S,with no effect
4,V27E,disrupting interaction strength
5,M10V,with no effect
6,M50A,decreasing interaction strength
7,N51A,decreasing interaction strength
8,K6E,with no effect
9,D47H,disrupting interaction strength
10,D47A,disrupting interaction strength
11,G45V,with no effect
12,G41D,disrupting interaction strength
13,N3T,increasing interaction strength

# The remaining lines, values ahead:
row,effect of a mutation on the interaction,Variant
1,disrupting interaction strength,L81P
2,disrupting interaction strength,I54N
3,with no effect,E59A;N63D
4,decreasing interaction strength,I90R
5,decreasing interaction strength,I80F
6,with no effect,P76S
